# Laboratory results as given in patent US20250154231A1.
# Read-outs that look alike come from different tables or passages of the source.
# Legend:
# Assay in all cases: cell-based or functional assay
# [1] = target: SARS-CoV-2 spike (S) protein, Omicron BA.1.1 (SARS-CoV-2) (UniProt P0DTC2)
# [2] = target: SARS-CoV-2 spike (S) protein, Omicron BA.1 (SARS-CoV-2) (UniProt P0DTC2)
# [3] = target: SARS-CoV-2 Omicron BA.1 spike (S) protein of the live isolate (SARS-CoV-2) (UniProt P0DTC2)
# [4] = target: SARS-CoV-2 spike (S) protein, Omicron BA.2 (SARS-CoV-2) (UniProt P0DTC2)
# [5] = target: SARS-CoV-2 Omicron BA.1.1 spike (S) protein (SARS-CoV-2) (UniProt P0DTC2)
# [6] = target: SARS-CoV-2 spike (S) protein, Victoria strain (SARS-CoV-2) (UniProt P0DTC2)
# [7] = target: SARS-CoV-2 Delta spike (S) protein (SARS-CoV-2) (UniProt P0DTC2)
# [8] = target: SARS-CoV-2 spike (S) protein, Omicron BA.3 (SARS-CoV-2) (UniProt P0DTC2)
# [9] = target: SARS-CoV-2 Victoria spike (S) protein (SARS-CoV-2) (UniProt P0DTC2)
# [10] = target: SARS-CoV-2 Beta spike (S) protein (SARS-CoV-2) (UniProt P0DTC2)
# [11] = target: SARS-CoV-2 spike (S) protein, Omicron BA.4.6 (SARS-CoV-2) (UniProt P0DTC2)
# [12] = target: SARS-CoV-2 Gamma spike (S) protein (SARS-CoV-2) (UniProt P0DTC2)
# [13] = target: SARS-CoV-2 Omicron BA.2 spike (S) protein (SARS-CoV-2) (UniProt P0DTC2)
# [14] = target: SARS-CoV-2 spike (S) protein, Omicron BA.4/5 (SARS-CoV-2) (UniProt P0DTC2)
# [15] = target: SARS-CoV-2 Alpha spike (S) protein (SARS-CoV-2) (UniProt P0DTC2)
# [16] = target: SARS-CoV-2 spike (S) protein, Omicron BJ.1 (SARS-CoV-2) (UniProt P0DTC2)
# [17] = target: SARS-CoV-2 spike (S) protein, Omicron BA.2 (SARS-CoV-2) (UniProt P0DTC2); remark: listed apart in the source
# [18] = target: SARS-CoV-2 spike (S) protein, Omicron BA.2.3.20 (SARS-CoV-2) (UniProt P0DTC2)
# [19] = target: SARS-CoV-2 spike (S) protein, Victoria strain (SARS-CoV-2) (UniProt P0DTC2); remark: listed apart in the source
# [20] = target: SARS-CoV-2 spike (S) protein, Omicron BA.2.75 (SARS-CoV-2) (UniProt P0DTC2)
# [21] = target: SARS-CoV-2 spike (S) protein, Omicron BA.4.6 (SARS-CoV-2) (UniProt P0DTC2); remark: listed apart in the source
# [22] = target: SARS-CoV-2 spike (S) protein, Omicron BA.2.75.2 (SARS-CoV-2) (UniProt P0DTC2)
# [23] = target: SARS-CoV-2 spike (S) protein, Omicron BA.4/5 (SARS-CoV-2) (UniProt P0DTC2); remark: listed apart in the source
# [24] = target: SARS-CoV-2 spike (S) protein, Omicron BA.2 (SARS-CoV-2) (UniProt P0DTC2); remark: listed apart in the source
# [25] = target: SARS-CoV-2 spike (S) protein, Omicron BA.2.75 (SARS-CoV-2) (UniProt P0DTC2); remark: listed apart in the source
# [26] = target: SARS-CoV-2 Alpha (B.1.1.7) spike (S) protein (SARS-CoV-2) (UniProt P0DTC2)
# [27] = target: SARS-CoV-2 Omicron BA.1 spike (S) protein, pseudovirus construct (SARS-CoV-2) (UniProt P0DTC2)
# [28] = target: SARS-CoV-2 Gamma (P.1) spike (S) protein (SARS-CoV-2) (UniProt P0DTC2)
# [29] = target: SARS-CoV-2 Omicron BA.3 spike (S) protein (SARS-CoV-2) (UniProt P0DTC2)
# [30] = target: SARS-CoV-2 Omicron BA.2 spike (S) protein, pseudovirus construct (SARS-CoV-2) (UniProt P0DTC2)
# [31] = target: SARS-CoV-2 Omicron BA.3 spike (S) protein, pseudovirus construct (SARS-CoV-2) (UniProt P0DTC2)
# [32] = target: SARS-CoV-2 spike (S) protein, Omicron BA.2.75 (SARS-CoV-2) (UniProt P0DTC2); remark: listed apart in the source
# [33] = target: SARS-CoV-2 Omicron (BA.1) spike (S) protein, live virus isolate (SARS-CoV-2) (UniProt P0DTC2)
# [34] = target: SARS-CoV-2 Omicron BA.1 spike (S) protein of the pseudovirus (SARS-CoV-2) (UniProt P0DTC2)
# [35] = target: SARS-CoV-2 Beta (B.1.351) spike (S) protein (SARS-CoV-2) (UniProt P0DTC2)
# [36] = target: SARS-CoV-2 Omicron BA.1.1 spike (S) protein, pseudovirus construct (SARS-CoV-2) (UniProt P0DTC2)
# [37] = target: SARS-CoV-2 Omicron BA.4/5 spike (S) protein (SARS-CoV-2) (UniProt P0DTC2)
# [38] = target: SARS-CoV-2 spike (S) protein, Omicron BA.2 (SARS-CoV-2) (UniProt P0DTC2); remark: listed apart in the source
# [39] = target: SARS-CoV-2 spike (S) protein, Omicron BA.2.75 (SARS-CoV-2) (UniProt P0DTC2); remark: listed apart in the source
# Chain of AZD8895 (antibody) (VH): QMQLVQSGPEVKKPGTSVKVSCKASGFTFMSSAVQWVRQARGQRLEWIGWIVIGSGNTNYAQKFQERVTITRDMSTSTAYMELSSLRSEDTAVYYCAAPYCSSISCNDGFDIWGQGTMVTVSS
# Chain of AZD8895 (antibody) (VL): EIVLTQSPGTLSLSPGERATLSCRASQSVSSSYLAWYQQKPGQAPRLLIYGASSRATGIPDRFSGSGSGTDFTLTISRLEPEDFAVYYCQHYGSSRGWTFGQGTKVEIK
substance,measurement,setting,value
AZD8895 (antibody),"IC50, pseudoviral neutralization",[1],0.1 µg/mL
same,pseudovirus neutralisation IC50,[1],0.1 µg/mL
same,"IC50, pseudoviral neutralization",[2],0.246 µg/mL
same,pseudovirus neutralisation IC50,[2],0.246 µg/mL
same,"IC50, authentic virus neutralization",[3],1.15 µg/mL
same,"IC50, pseudoviral neutralization",[4],1.33 µg/mL
same,pseudovirus neutralisation IC50,[4],1.33 µg/mL
same,"IC50, authentic virus neutralization",[5],6.08 µg/mL
same,"IC50, pseudoviral neutralization",[6],0.001 µg/mL
same,pseudovirus neutralisation IC50,[6],0.001 µg/mL
same,"IC50, authentic virus neutralization",[7],0.003 µg/mL
same,"IC50, pseudoviral neutralization",[8],> 10 µg/mL
same,pseudovirus neutralisation IC50,[8],> 10 µg/mL
same,"IC50, authentic virus neutralization",[9],0.005 µg/mL
same,"IC50, authentic virus neutralization",[10],0.046 µg/mL
same,"IC50, pseudoviral neutralization",[11],> 10 µg/mL
same,"IC50, authentic virus neutralization",[12],0.046 µg/mL
same,"IC50, authentic virus neutralization",[13],7.7 µg/mL
same,"IC50, pseudoviral neutralization",[14],> 10 µg/mL
same,pseudovirus neutralisation IC50,[14],> 10 µg/mL
same,"IC50, authentic virus neutralization",[15],0.011 µg/mL
same,"IC50, pseudoviral neutralization",[16],0.114 µg/mL
same,"IC50, pseudoviral neutralization",[17],1.33 µg/mL
same,"IC50, pseudoviral neutralization",[18],0.007 µg/mL
same,"IC50, pseudoviral neutralization",[19],0.001 µg/mL
same,"IC50, pseudoviral neutralization",[20],0.008 µg/mL
same,"IC50, pseudoviral neutralization",[21],> 10 µg/mL
same,"IC50, pseudoviral neutralization",[22],> 10 µg/mL
same,"IC50, pseudoviral neutralization",[23],> 10 µg/mL
same,pseudovirus neutralisation IC50,[24],1.99 µg/mL
same,pseudovirus neutralisation IC50,[25],0.008 µg/mL
Omi-03 (antibody),pseudovirus neutralisation IC50,[1],0.003 µg/mL
same,pseudovirus neutralisation IC50,[2],0.005 µg/mL
same,Authentic virus-IC50,[26],0.012 µg/mL
same,"IC50, authentic virus neutralization",[3],0.009 µg/mL
same,pseudovirus neutralisation IC50,[4],0.008 µg/mL
same,"IC50, authentic virus neutralization",[5],0.015 µg/mL
same,"IC50, pseudovirus neutralization",[5],0.003 µg/mL
same,Pseudovirus - IC50,[27],0.005 µg/mL
same,Authentic virus-IC50,[28],0.004 µg/mL
same,"IC50, pseudovirus neutralization",[29],0.022 µg/mL
same,Pseudovirus - IC50,[30],0.008 µg/mL
same,pseudovirus neutralisation IC50,[6],0.003 µg/mL
same,Pseudovirus - IC50,[31],0.022 µg/mL
same,Authentic virus-IC50,[7],0.004 µg/mL
same,"IC50, authentic virus neutralization",[7],0.004 µg/mL
same,pseudovirus neutralisation IC50,[8],0.022 µg/mL
same,Authentic virus-IC50,[9],0.007 µg/mL
same,"IC50, authentic virus neutralization",[9],0.007 µg/mL
same,"IC50, pseudovirus neutralization",[9],0.003 µg/mL
same,Pseudovirus - IC50,[9],0.003 µg/mL
same,pseudovirus neutralisation IC50,[32],0.017 µg/mL
same,"IC50, authentic virus neutralization",[10],0.009 µg/mL
same,Authentic virus-IC50,[33],0.009 µg/mL
same,"IC50, authentic virus neutralization",[12],0.004 µg/mL
same,"IC50, pseudovirus neutralization",[34],0.005 µg/mL
same,Authentic virus-IC50,[35],0.009 µg/mL
same,"IC50, authentic virus neutralization",[13],0.028 µg/mL
same,"IC50, pseudovirus neutralization",[13],0.008 µg/mL
same,pseudovirus neutralisation IC50,[14],0.017 µg/mL
same,Pseudovirus - IC50,[36],0.003 µg/mL
same,"IC50, pseudovirus neutralization",[37],0.017 µg/mL
same,"IC50, authentic virus neutralization",[15],0.012 µg/mL
same,pseudovirus neutralisation IC50,[38],0.008 µg/mL
same,pseudovirus neutralisation IC50,[39],0.017 µg/mL
same,"IC50, pseudoviral neutralization",[16],0.014 µg/mL
same,"IC50, pseudoviral neutralization",[17],0.008 µg/mL
same,"IC50, pseudoviral neutralization",[18],0.02 µg/mL
same,"IC50, pseudoviral neutralization",[19],0.003 µg/mL
same,"IC50, pseudoviral neutralization",[20],0.017 µg/mL
same,"IC50, pseudoviral neutralization",[21],0.006 µg/mL
same,"IC50, pseudoviral neutralization",[22],0.546 µg/mL
same,"IC50, pseudoviral neutralization",[23],0.017 µg/mL
